Among the data in a protein production outcome set (Wang et al. 2014) are protein production values, retold here.

This series in a line: label from the status in PepcDB records.
In the case of “MLELFLKSFLTLFVVMDPVGLVPVFVALAGDRPHRTQVLIARKAVLVAGGLLTFFYFFGRELLGHLGISLEALRIAGGVLLFRIATEMVFAHHERETEEERDEALSRADISVFPLAIPLIAGPGALASVLVLGAEAKGVPYGFAVVLFTAYLVLFLAYLFLRGATAVRRALGRTGVNVVTRVLGLLLAALAVQYVADGVRGLL”, the protein production result is “failed”.
To “MLETLMYGAISALVFGTVLPLLYRSKNIRKASSGLSLLSSILLLGFAGIILYTRTEPVFPVTGFLPGAGFTLSADRLAAGFILLIGAVVPGVSIYSVEYVEHAKSEARKSLQASLTNLFILAMLMVILAGNMVSFLVFWEIMSLSSLLLVLHDYSSEENKKAGFFYFVMTNISTAFLFVGFISLFRLTGSADFGPLEYPAADLALPFIFLFIGFGVKAGLVPFHKWLPYAHPAAPSSVSALMSGVMLKVAVYGFLRFLLSVSAPELWWGVLILTAGSISALFGVIYALKENDIKRMLAYSSIENIGIIFTGIGLYAVFKVEGLESLALLSLVGACFHAFNHAVFKSLLFLCAGSVVHATGTRKIEAFGGLVKSMPVTSALFLIGSVSIAAMPPTNGFAGELLLYQAFFQSFAVTDPLLNIFLIIALSSFALTGALAAALFVKLFGITCLAIPRSEKSRLAEEVQKPMLVGPAVPAAFCILGGLFSKQLLSLAGWKIDFPDLLLLGILLGLIYTALFVIIRSKETGPARISETWGCGIPALAPYMEYSSAGFSEPLVMIFKSIYRTKIVNRPEYFDEKESLFKNGKVEIRLLRFFEEYLYIPPARAIDIFSKYVSKLQNGKLDSYVLYAFLAVIVLIIATGGFV” belongs “failed”; to “MLEVHRTHRAKILNYSQVEDSLNRHGWSASKLWNVANYHSRQVWEETREIPGHEELKNELKGHDKYKGLHSQSSQRVLEELAEAFNSWYSSDDERDNPPGYRKQNYYDQQGRRVHEEHPLSTVTWKQNGIRHDTKNNRVRLSKGANHKEHPKAWEYILVEYETRPGVEVENLQQVRAVYDQTKERWELHLVCKEEIETPDAPGTETAGIDLGISNFAAVAYSTEDADLYPGNRLKQDGYYFPKEIANCDDSSGDRATRLHHKWSERRTHFFHSLAKHIVEKCIERSVGRINVGDLEGIREDENAKSKNWGRHGNLDLHGWAFDRFTSILEYKAKVEGIEVMEVSERDTSKTCCVCGREDDSQRVERGLYVCESCDAAFNADVNGAENIRLDIDEESNSESTGQLSGDRSTGWLAQPGVYLYDLSCGFQPQREVVDSKP”, “failed”.
Next, “MLFSIQTCPCQINPALNAVSTPLLYQDCCQPYHDGLYNQEVEDSDAIRADTAEHLMRTRYSAFVLVKPEYIVKTTLPAQQDLLDIKAIENWAKETDWAGLEVVAHTPKLSKRHAQVEFKAYFKTPDGLQAHHELSTFVKIKNKANSDASWYFLDPTVSMSVTQKQPCICGSGEKFKRCCGMYI”: “not failed”.
To “MLFSIRNFNQGVIMAGWFELSKSSDNQFRFVLKAGNGETILTSELYTSKASAEKGIASVRSNSPQEERYEKKTASNGKFYFNLKAANHQIIGSSQMYATAQSRETGIASVKANGTSQTVKDNT” belongs “failed”.
“MLFSLKYLGMTLVEQPKGEELSAAAIKRIVATAKASGKKLQKVTLKVSPRGIILTDNLTNQLIENVSIYRISYCTADKMHDKVFAYIAQSQHNQSLECHAFLCTKRKMAQAVTLTVAQAFKVAFEFWQVSKEEKEKRDKASQEGGDVLGARQDCTPPLKSLVATGNLLDLEETAKAPLSTVSANTTNMDEVPRPQALSGSSVVWELDDGLDEAFSRLAQSRTNPQVLDTGLTAQDMHYAQCLSPVDWDKPDSSGTEQDDLFSF”: the protein production entry is given as “failed”.
Next, “MLFTPEGTPMARRLEDARILMYSHDTFGLGHLRRCRAIAHALVEDYRGLNILIISGATIAGAFDYRARVDFVKIPSVIKLRNGEYTSLASHIDLHETLKMRESSIRHTAETFQPDIFIVDKEPMGLKGEVEDTLAYLKARGTVLVLGLREIMDAPHLLDAEWKRNGIMQKIDQYYDSVWVYGPPDFYDPLIGLDVPVSLRRKMDFVGFLQRSVSKGKTSIHARKDNYLLVTTGGGGDGSDLVHDVMNAYEADPTLTQKALVVLGPYMPAAERAKLVQKGEAIPYIEVIEFDNHMEELIDGATGVVAMGGYNTYCEILSFDKPALIVPRVKPREEQLLRAKRASELGLVDMLLPEQSVDPAIMAAALKRLPSRLPPSKSGSNMHLEGLDHISQTVGRWLDGRATHLAVVGAE”: “failed”; “MLFWGSAFNAMSYVIQYMPPLSAAAERFTIASLGLFILFAAIGKLRWAALRQNLAIYLIIGIIGIAGFNLGCFYGLQTTSAVNGALIMATTPLITLLLTILLDGEKLTLNKSIGVVFGLSGVLFVISHGHISTLLHLKIAIGDLFILLGGVSFCLANMLSRRYVKNATPLETTTFSMMSGALTLIILSVIFEHPSQAIAMAPITAHLAMGYVIICSTMIAYLFWFNGIQKLGAGRASIFFNFVPVFSMLVALLAGQSLNIWQLIGTALVMLGVMSSGGFIQIKRPTLIAKPCTK”: “failed”.
Turning to “MLGAVARGGWVYEVHAAGAGTDLYRVSLLEGYQEQRPLSAAESAALPALLPLVHAESALSEMGYFHGVMGSTADTALAYDRFVGHTRWFGGEDGTRLLNRIRTRLQRPGPVRFWNGSSPPTGEDRRAALVP”, the protein production result was “failed”.
To “MLGFKDIPLTKKVIHIINDIERPFMIRWSNSHDVQQIHDWLQEEEALEVHGNFLCNWNLTRQCHEEGRLLVLIDEIKGIPVAYQWGQLLSSGILQVRNGWRGNGLGRLVVEHCVELALQQDEMVLQVECKPSSSIPFWEAMGFTIVEGEFGKNAKGFRVLSKNLALPPGGRPILATISSFPEERNWQDNVPAIASYHLNAIVADDGKVYLAERASFPKCFRRMSRDPVIEIIVEGKLVYRDKAKYQGAQDHGVKWCRNGFYIDVVTI” belongs “failed”; to “MLGHNKISVIIPAYNEERRIGNVLKGIPDFVDEVIVVDDGSSDGTSKVAMELGATVIRLNKNSGKGAAMREGLKISTGDIIVFMDADGQHNPKEIYRLVKPIVEGRADLVIGRRIITRGKRPMSRKISNFITTRLITLKTRKKILDTQSGFRAIRREFVPVIESDRYEVETEVLIKAIKKGARILEVPISTRYDVETGHFKMIDIFRFLFALIKYLEHHHHHH”, “failed”.
Next, “MLHFAHIFQNKVHTMNITKPFPLPTGYFGIPLGLAALSLAWFHLENLFPAARMVSDVLGIVASAVWILFILMYAYKLRYYFEEVRAEYHSPVRFSFIALIPITTMLVGDILYRWNPLIAEVLIWIGTIGQLLFSTLRVSELWQGGVFEQKSTHPSFYLPAVAANFTSASSLALLGYHDLGYLFFGAGMIAWIIFEPVLLQHLRISSLEPQFRATMGIVLAPAFVCVSAYLSINHGEVDTLAKILWGYGFLQLFFLLRLFPWIVEKGLNIGLWAFSFGLASMANSATAFYHGNVLQGVSIFAFVFSNVMIGLLVLMTIYKLTKGQFFLK”: “not failed”; “MLHGLKQRLEALHHPGELEGSPQNLHQLLGVSIEQSVPQAQTMLVERHLASLTGDEARLLAALSDGSAFALLTLYSGSRFSRGEVLYRYSNAGRAAGIQCNDFIALYLNHLFAQGLVIASDFTESLRTDYELCEGDSDFRKAQAELQIHLPKLSIRRETLRISPLGRQLWTLMTTPADIEE”: “not failed”.
To “MLHIDDAMIEDAVTPQAAQEVLHAAFLDFGRGSAAMQRRVRTEAGGVKLSTLGAVIPGQGVAGAKVYTTIKGQFQFVILLFSAADGRPLATCDAGTLTRKRTAACTVLAAGALARLRSSVLGLFGAGTQGVEHAAQLSARFALEAILVHDPHASPEVVERIGRRCGVPARMAAPADIAAQADIVVTATRSATPLFAGQALRAGAFVGAIGSSLPHTRELDDEVLRRARAVVVEWREQTLSEAGDLVLAAPDTGLDAKVVELADVLAGRATARQADEDIVIYKSVGVGLEDVALAGYAYRRLAAQRGWPAP” belongs “failed”; to “MLIDIALATYNGEKYIQEMLNSISNQTYQDFMIHLRDDGSTDNTLTLCENHKLYEQGKLKIYKDNIKGLGASKNFLKILGHCNSEYIFLCDQDDFWMKDKIQKMLDHIQKHEYKNNIKVPTLVFSDLQIVDRSLNIIADSFYRNSIKSSMCSSPFDFLLSNHIPGCAMVVNKSLLESIQPLPENFRMHDWWLAFVASFYGKIAYLDEPLIKYRQHGGNTVGVPGMNINILRQIKSILNFRDLLDKGLLHKKKMEIYIDKTCSNKILSYESNRFYDFLKGNMPFLEKNKIFKQIKFGEPLILSYLVWLFL”, “failed”.
In the case of “MLIENAVDFIENANIGIHTVSPEGIIKYANEHELTVLGYTEDEYVGHHVSEFQFDKSCLEQMMIKLAKFESFSNFPAMVCGKLKMKYILYNSSVYAEDGEFVHTRCFGNEISKSVYQACKVDYKKSLTNRVD”, the protein production result is given as “failed”.
Next, “MLIKKIDLHKDPIRKLFFYYFIPLAFSMISLSTYSMIDGMFVGKKLGKEAIAAVNIAWPIFPGLIAYELLFGFGAASIVGYFLGQNKTHRARLVFSSVFYFVAISAFILSMALLPFSETIARFFGSNDALLSMSKRYIEIILMGAVFMVLHPLADVFVVNDKRPILAMVAMLIGSLANIFFNYLFIFVLKVGVQGSAIATVIGHAIGVLVLMQHFWRKKGQLYFIKRFSLSSVISSAKSGVPQSTAEFSASVMILLFNTAIMHTAGERFVSMYGIVMYNAIIFFTTLFAISQGIQPIASFSYGARNLERVKEVFVFGLKAAFCIGIVFYGAYYFLDEFLIKLYLQPSEQDPLFMQETKRAMNIYYVGYIFLGMTLLCAVFFQSIQRTKSSFIITLSHTLGFIVILLPILSHFYGINGVWVTYPIAQFLAFLVALGVTYYEIKKGVFTTYKEKNPIALKT”: “failed”; “MLIKSIKLTNILSFGEAAETIELRPLNVVIGPNGSGKSNLIAAIELFRALPKDAPAFFRREGGIHDWLWKGGEIPPVATIESVFDEKGPLSGLRYALRFTVVGQHFEIIEERIEEEAAEGAQTPPPYHFKDGRGALRALLANEGEIKAWSFVIPSEIDPTQSILAQRKDPHQYPELTSLGAVLPTMRCYREWTMGPQSPPRQDQKTDLRNDYLDPYGAGNLALVLQRLGNKPALKKRFLEALRLLYEGIDDYGVTIEGGTSQIFFHEGGRFTIPASRLSDGTLRYLCLLAILLDPAPPPLLCIEEPELGLHPDILPTLADLLKEASERTQVIVTTHSDGLVDAMTDRPEAVLIAEKNENGTTLTRLDGETLKPWLAKYRLGELWTRGGIGGTRWLEHHHHHH”: “failed”.
To “MLILLPDFIGHPSCFRGLLARLGATDCRLVDYHRLDAYASIEALASQVLDGLAEEPDWLIGYSFGGLVGYEMARQLPASRLLMIDSHLPWPALRRMPPSEQYQRWLSAEMREWIALMSELGELREEVLLRNVELFGRWQPRHRLARASWVRCRDDAGRDPAAERWCDLIERLDTFPCERPHHLALQDPAVIDFIVHTVSK” belongs “failed”; to “MLIPHDLLEADTLNNLLEDFVTREGTDNGDETPLDVRVERARHALRRGEAVILFDPESQQCQLMLRSEVPAELLRD”, “not failed”.
Next, “MLIPQQKELNSISLLAEVSRTVTNENDISKVLRIVLFIMSEHLDMLRGMITILNRETGEITTNESFGLTEEEMERGRYRIGEGIIGQVVKTGKPFIVPNIGDEPLFLDRTRSRQKTKKENLCFICIPIRSGAEIIGTLSADRQLEPSLLKESGKRMKAEDERMDLLQHYVDLLSIIASMISQAVRLKQIAHEATAGIAVVEHKPQQEK”: “failed”.
